Assay results reported in patent US20240261403A1 (published 2024).

T1: EGFR L858R peptide on HLA-A*33:03 (human)
T1 peptide: HVKITDFGR


Molecular target: T1, EGFR L858R peptide on HLA-A*33:03
Assay: multimer staining

binding result | Binder
recognises | TCR (ii) with CDR3 alpha SEQ ID NO: 2 and CDR3 beta SEQ ID NO: 14 (Table 2, rank 2) (TCR, V domains shown) Valpha: KQEVTQIPAALSVPEGENLVLNCSFTDSAIYNLQWFRQDPGKGLTSLLLIQSSQREQTSGRLNASLDKSSGRSTLYIAASQPGDSATYLCAATGTYKYIFGRGTSLIVHP Vbeta: NAGVTQTPKFQVLKTGQSMTLQCAQDMNHEYMSWYRQDPGMGLRLIHYSVGAGITDQGEVPNGYNVSRSTTEDFPLRLLSAAPSQTSVYFCASSPEFARALDNQPQHFGPGTRLTVL
recognises | TCR (i) with CDR3 alpha SEQ ID NO: 1 and CDR3 beta SEQ ID NO: 13 (Table 2, rank 1) (TCR, V domains shown) Valpha: KQEVTQIPAALSVPEGENLVLNCSFTDSAIYNLQWFRQDPGKGLTSLLLIQSSQREQTSGRLNASLDKSSGRSTLYIAASQPGDSATYLCAFIGHGGSQGNLIFGRGTSLIVHP Vbeta: NAGVTQTPKFQVLKTGQSMTLQCAQDMNHEYMSWYRQDPGMGLRLIHYSVGAGITDQGEVPNGYNVSRSTTEDFPLRLLSAAPSQTSVYFCASSMQGAMSEQFFGPGTRLTVL
